Among the data in article PMC10786891, “Massively parallel profiling of RNA-targeting CRISPR-Cas13d” are Kd values, retold here.

Sequences and labels used below:
B1: target 1 C2G,A9C (mixed)
RNA 1: CACCCGUGCAAAAAUGCAGGGGUCUAAAACUGAGCGGAUAACCUCUCUAUGG
RNA 2: GGGAAUGGAUCCACAUCUACGAAUUCGUACCAUAGAGAGGUUCUCCGCUGACCGAGAUCGGAAGAGCACACGU
B2: target 1 A1U,C2G (mixed)
RNA 1: CACCCGUGCAAAAAUGCAGGGGUCUAAAACUGAGCGGAUAACCUCUCUAUGG
RNA 2: GGGAAUGGAUCCACAUCUACGAAUUCGUACCAUAGAGAGGUUAUCCGCUGUCCGAGAUCGGAAGAGCACACGU
B3: target 2 MT 5'PFS CAG 3'PFS AUC (mixed)
RNA 1: CACCCGUGCAAAAUUGCAGGGGUCUAAAACCUUCUCCAAAUUGUUUCAUCCU
RNA 2: GGGAAUGGAUCCACAUCUACGAAUUCCAGAGGAUGAAACAAUUUGGAGAAGAUCAGAUCGGAAGAGCACACGU
B4: target 2 MT 5'PFS GAA 3'PFS AGG (mixed)
RNA 1: CACCCGUGCAAAAUUGCAGGGGUCUAAAACCUUCUCCAAAUUGUUUCAUCCU
RNA 2: GGGAAUGGAUCCACAUCUACGAAUUCGAAAGGAUGAAACAAUUUGGAGAAGAGGAGAUCGGAAGAGCACACGU
B5: target 2 MT 5'PFS GAA 3'PFS AGC (mixed)
RNA 1: CACCCGUGCAAAAUUGCAGGGGUCUAAAACCUUCUCCAAAUUGUUUCAUCCU
RNA 2: GGGAAUGGAUCCACAUCUACGAAUUCGAAAGGAUGAAACAAUUUGGAGAAGAGCAGAUCGGAAGAGCACACGU
B6: target 2 MT 5'PFS CUG 3'PFS UGC (mixed)
RNA 1: CACCCGUGCAAAAUUGCAGGGGUCUAAAACCUUCUCCAAAUUGUUUCAUCCU
RNA 2: GGGAAUGGAUCCACAUCUACGAAUUCCUGAGGAUGAAACAAUUUGGAGAAGUGCAGAUCGGAAGAGCACACGU
B7: target 2 MT 5'PFS GCG 3'PFS UCA (mixed)
RNA 1: CACCCGUGCAAAAUUGCAGGGGUCUAAAACCUUCUCCAAAUUGUUUCAUCCU
RNA 2: GGGAAUGGAUCCACAUCUACGAAUUCGCGAGGAUGAAACAAUUUGGAGAAGUCAAGAUCGGAAGAGCACACGU
B8: target 2 MT 5'PFS GCG 3'PFS UCU (mixed)
RNA 1: CACCCGUGCAAAAUUGCAGGGGUCUAAAACCUUCUCCAAAUUGUUUCAUCCU
RNA 2: GGGAAUGGAUCCACAUCUACGAAUUCGCGAGGAUGAAACAAUUUGGAGAAGUCUAGAUCGGAAGAGCACACGU
B9: target 2 MT 5'PFS GCG 3'PFS UCG (mixed)
RNA 1: CACCCGUGCAAAAUUGCAGGGGUCUAAAACCUUCUCCAAAUUGUUUCAUCCU
RNA 2: GGGAAUGGAUCCACAUCUACGAAUUCGCGAGGAUGAAACAAUUUGGAGAAGUCGAGAUCGGAAGAGCACACGU
B10: target 2 MT 5'PFS ACG 3'PFS CCG (mixed)
RNA 1: CACCCGUGCAAAAUUGCAGGGGUCUAAAACCUUCUCCAAAUUGUUUCAUCCU
RNA 2: GGGAAUGGAUCCACAUCUACGAAUUCACGAGGAUGAAACAAUUUGGAGAAGCCGAGAUCGGAAGAGCACACGU
B11: target 2 MT 5'PFS ACU 3'PFS ACA (mixed)
RNA 1: CACCCGUGCAAAAUUGCAGGGGUCUAAAACCUUCUCCAAAUUGUUUCAUCCU
RNA 2: GGGAAUGGAUCCACAUCUACGAAUUCACUAGGAUGAAACAAUUUGGAGAAGACAAGAUCGGAAGAGCACACGU
B12: target 2 MT 5'PFS GAA 3'PFS AGU (mixed)
RNA 1: CACCCGUGCAAAAUUGCAGGGGUCUAAAACCUUCUCCAAAUUGUUUCAUCCU
RNA 2: GGGAAUGGAUCCACAUCUACGAAUUCGAAAGGAUGAAACAAUUUGGAGAAGAGUAGAUCGGAAGAGCACACGU
B13: target 2 MT 5'PFS ACG 3'PFS CCA (mixed)
RNA 1: CACCCGUGCAAAAUUGCAGGGGUCUAAAACCUUCUCCAAAUUGUUUCAUCCU
RNA 2: GGGAAUGGAUCCACAUCUACGAAUUCACGAGGAUGAAACAAUUUGGAGAAGCCAAGAUCGGAAGAGCACACGU
B14: target 2 MT 5'PFS ACU 3'PFS ACU (mixed)
RNA 1: CACCCGUGCAAAAUUGCAGGGGUCUAAAACCUUCUCCAAAUUGUUUCAUCCU
RNA 2: GGGAAUGGAUCCACAUCUACGAAUUCACUAGGAUGAAACAAUUUGGAGAAGACUAGAUCGGAAGAGCACACGU
B15: target 2 MT 5'PFS GUA 3'PFS AUC (mixed)
RNA 1: CACCCGUGCAAAAUUGCAGGGGUCUAAAACCUUCUCCAAAUUGUUUCAUCCU
RNA 2: GGGAAUGGAUCCACAUCUACGAAUUCGUAAGGAUGAAACAAUUUGGAGAAGAUCAGAUCGGAAGAGCACACGU
B16: target 2 MT 5'PFS GUA 3'PFS AUG (mixed)
RNA 1: CACCCGUGCAAAAUUGCAGGGGUCUAAAACCUUCUCCAAAUUGUUUCAUCCU
RNA 2: GGGAAUGGAUCCACAUCUACGAAUUCGUAAGGAUGAAACAAUUUGGAGAAGAUGAGAUCGGAAGAGCACACGU
B17: target 2 MT 5'PFS ACU 3'PFS ACG (mixed)
RNA 1: CACCCGUGCAAAAUUGCAGGGGUCUAAAACCUUCUCCAAAUUGUUUCAUCCU
RNA 2: GGGAAUGGAUCCACAUCUACGAAUUCACUAGGAUGAAACAAUUUGGAGAAGACGAGAUCGGAAGAGCACACGU
B18: target 2 MT 5'PFS GCG 3'PFS AAG (mixed)
RNA 1: CACCCGUGCAAAAUUGCAGGGGUCUAAAACCUUCUCCAAAUUGUUUCAUCCU
RNA 2: GGGAAUGGAUCCACAUCUACGAAUUCGCGAGGAUGAAACAAUUUGGAGAAGAAGAGAUCGGAAGAGCACACGU
B19: target 2 MT 5'PFS GUA 3'PFS AUU (mixed)
RNA 1: CACCCGUGCAAAAUUGCAGGGGUCUAAAACCUUCUCCAAAUUGUUUCAUCCU
RNA 2: GGGAAUGGAUCCACAUCUACGAAUUCGUAAGGAUGAAACAAUUUGGAGAAGAUUAGAUCGGAAGAGCACACGU
B20: target 2 MT 5'PFS CUG 3'PFS UGU (mixed)
RNA 1: CACCCGUGCAAAAUUGCAGGGGUCUAAAACCUUCUCCAAAUUGUUUCAUCCU
RNA 2: GGGAAUGGAUCCACAUCUACGAAUUCCUGAGGAUGAAACAAUUUGGAGAAGUGUAGAUCGGAAGAGCACACGU
B21: target 2 MT 5'PFS GAA 3'PFS AGA (mixed)
RNA 1: CACCCGUGCAAAAUUGCAGGGGUCUAAAACCUUCUCCAAAUUGUUUCAUCCU
RNA 2: GGGAAUGGAUCCACAUCUACGAAUUCGAAAGGAUGAAACAAUUUGGAGAAGAGAAGAUCGGAAGAGCACACGU
B22: target 2 MT 5'PFS GCG 3'PFS UCC (mixed)
RNA 1: CACCCGUGCAAAAUUGCAGGGGUCUAAAACCUUCUCCAAAUUGUUUCAUCCU
RNA 2: GGGAAUGGAUCCACAUCUACGAAUUCGCGAGGAUGAAACAAUUUGGAGAAGUCCAGAUCGGAAGAGCACACGU
B23: target 2 MT 5'PFS ACU 3'PFS ACC (mixed)
RNA 1: CACCCGUGCAAAAUUGCAGGGGUCUAAAACCUUCUCCAAAUUGUUUCAUCCU
RNA 2: GGGAAUGGAUCCACAUCUACGAAUUCACUAGGAUGAAACAAUUUGGAGAAGACCAGAUCGGAAGAGCACACGU

In general, Kd refers to the free concentration of one partner at which half of the binding sites on the other are occupied at equilibrium, for simple one-to-one binding. A lower Kd goes with tighter binding.

This series addresses T1, EsCas13d, nuclease-dead (Eubacterium siraeum, UniProt B0MS50, R295A;H300A;R849A;H854A).
T1 sequence: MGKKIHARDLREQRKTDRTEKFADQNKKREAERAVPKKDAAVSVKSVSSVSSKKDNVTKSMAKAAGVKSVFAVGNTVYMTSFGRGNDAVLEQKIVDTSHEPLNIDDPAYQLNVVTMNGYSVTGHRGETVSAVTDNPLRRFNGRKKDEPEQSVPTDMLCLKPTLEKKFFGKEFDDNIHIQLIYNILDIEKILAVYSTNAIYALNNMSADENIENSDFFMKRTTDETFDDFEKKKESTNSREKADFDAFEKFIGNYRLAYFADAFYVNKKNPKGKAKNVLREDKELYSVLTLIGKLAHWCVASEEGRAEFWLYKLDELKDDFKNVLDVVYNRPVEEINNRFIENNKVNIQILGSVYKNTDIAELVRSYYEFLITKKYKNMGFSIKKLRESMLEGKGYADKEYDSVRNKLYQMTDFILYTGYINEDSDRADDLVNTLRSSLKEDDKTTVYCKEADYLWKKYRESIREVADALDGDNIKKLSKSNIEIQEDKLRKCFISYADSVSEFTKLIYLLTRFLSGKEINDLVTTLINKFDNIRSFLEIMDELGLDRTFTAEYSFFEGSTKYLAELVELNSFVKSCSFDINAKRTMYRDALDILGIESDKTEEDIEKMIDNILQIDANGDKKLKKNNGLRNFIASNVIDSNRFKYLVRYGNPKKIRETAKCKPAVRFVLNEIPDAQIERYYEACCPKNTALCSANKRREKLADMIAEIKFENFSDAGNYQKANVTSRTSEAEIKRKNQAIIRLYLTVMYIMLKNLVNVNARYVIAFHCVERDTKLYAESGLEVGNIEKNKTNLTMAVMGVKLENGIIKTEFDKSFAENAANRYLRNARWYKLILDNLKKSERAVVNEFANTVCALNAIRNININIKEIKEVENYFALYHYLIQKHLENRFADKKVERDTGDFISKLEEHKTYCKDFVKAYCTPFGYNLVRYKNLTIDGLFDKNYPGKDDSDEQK
Kind of series: crRNA (strand 1, pre-loaded); Mg2+; 40 mM Tris-HCl pH 7.5, 150 mM NaCl, 6 mM MgCl2, 1 mM DTT, 0.1% Tween-20, 0.2 mg/ml BSA; 25 C; 10 min per concentration, then washed. Particulars: tags: His6-TwinStrep-SUMO cleaved; N-terminal SNAP kept (SNAP-Surface 488); label: 3' end held by stalled T7 RNA polymerase.
Regarding B1, the affinity, expressed as Kd, was 15 ± 1.2 nM.

Take B2: the affinity, expressed as Kd, was 9.2 ± 0.8 nM.

As for B3, the Kd was determined as 7 ± 1.7 nM.

For B4, the Kd stood at 6.9 ± 0.7 nM.

B5 displayed a Kd of 6.3 ± 1.1 nM.

On to B6, for which the Kd was found to be 2.56 ± 0.25 nM. Compared with the last molecule, the Kd is about 2.5-fold lower.

The molecule B7 gave a Kd of around 37 nM.

Turning to B8, the Kd came to 31 ± 5 nM.

As for B9, the Kd was determined as 20 ± 4 nM. This Kd lies about 1.6-fold lower than the previous one.

B10: binding was characterised by a dissociation constant (Kd) of 9.9 ± 1.5 nM.

Consider B11, for which binding was characterised by a dissociation constant (Kd) of 4.2 ± 0.7 nM. This Kd lies about 2.4-fold lower than the previous one.

As for B12, binding was put at a Kd of 15.3 ± 2.4 nM.

Take B13: the Kd is 19 ± 7 nM.

As for B14, the Kd came out at 7.3 ± 1.3 nM.

In turn, B15 showed a dissociation constant Kd of 8.9 ± 0.8 nM.

With B16, the Kd turned out to be 7.8 ± 0.5 nM.

As to B17, the Kd came out at 9.5 ± 2.5 nM.

Regarding B18, the Kd turned out to be 10.2 ± 1.5 nM.

B19 gave a Kd of 6.8 ± 0.5 nM.

With B20, the Kd was determined as 3.72 ± 0.32 nM.

In turn, B21 registered a Kd of 5.4 ± 0.9 nM. The Kd values of the last two molecules are within 1.5-fold of each other.

B22: the Kd is 30 ± 5 nM.

Turning to B23, the affinity, expressed as Kd, was 9.3 ± 2.2 nM.
